B1: human monoclonal antibody PhtD3 (antibody, V domains shown)
VH: QVQLVQSGPDVKKPGSSVKVSCKASGAAFESFAFAWVRQAPGQGFEWMGRIIPILETRDYAEKFQGRMTMTTDESTATAYMELNSLRFEDTAVYFCARDGHIMRTTLSDAALDVWGQGTTVIVSS
VL: DIVMTQSPVTLSLSPGERATLSCRASQSLTDNYLAWYQQKPGQAPRLLIYAASTRATGIPDRISGSGSGTDFTLTISRVEPEDFAMFYCQQYQNSPFTFGGGTTVEIK
B2: PhtD3-IgG2a (recombinant chimera of mAb PhtD3 with a mouse IgG2a Fc region) (antibody, V domains shown)
VH: B1 VH
VL: B1 VL

Legend:
[1] = target: PhtD protein of pneumococcal strain TIGR4 (serotype 4), native, in bacterial lysates (Streptococcus pneumoniae strain TIGR4 (serotype 4)); assay: flow cytometry on whole bacteria, 4 (TIGR4), mAb 10 µg/ml, APC anti-human IgG Fc; no mAb 0.1
[2] = target: PhtD, serotype 6C (Streptococcus pneumoniae); assay: flow cytometry on whole bacteria, serotype 6c, mAb 10 µg/ml, APC anti-human IgG Fc; no mAb 1.3
[3] = target: PhtD, serotype 2 (Streptococcus pneumoniae); assay: flow cytometry on whole bacteria, serotype 2, mAb 10 µg/ml, APC anti-human IgG Fc; no mAb 0.6
[4] = target: recombinant His-tagged full-length pneumococcal histidine triad protein D (PhtD) from strain TCH8431 (serotype 19A) (Streptococcus pneumoniae strain TCH8431 (serotype 19A)); assay: ELISA on coated recombinant PhtD, non-linear regression fit
[5] = target: recombinant His-tagged full-length pneumococcal histidine triad protein D (PhtD) from strain TCH8431 (serotype 19A) (Streptococcus pneumoniae strain TCH8431 (serotype 19A)); assay: competitive BLI, His-tagged PhtD on anti-penta-HIS tips; first mAb PhtD3, then second mAb, each 100 µg/mL; black cell
[6] = target: recombinant His-tagged full-length pneumococcal histidine triad protein D (PhtD) from strain TCH8431 (serotype 19A) (Streptococcus pneumoniae strain TCH8431 (serotype 19A)); assay: competitive BLI, His-tagged PhtD on anti-penta-HIS tips; first mAb PhtD7, then second mAb, each 100 µg/mL; white cell
[7] = target: PhtD, WU2 (3) (Streptococcus pneumoniae); assay: flow cytometry on whole bacteria, 3 (WU2), mAb 10 µg/ml, APC anti-human IgG Fc; no mAb 1.3
[8] = target: PhtD, serotype 11A (Streptococcus pneumoniae); assay: flow cytometry on whole bacteria, serotype 11A, mAb 10 µg/ml, APC anti-human IgG Fc; no mAb 0.6
[9] = target: PhtD protein of pneumococcal strain TCH8431 (serotype 19A), native, in bacterial lysates (Streptococcus pneumoniae strain TCH8431 (serotype 19A)); assay: flow cytometry on whole bacteria, 19A (TCH8431), mAb 10 µg/ml, APC anti-human IgG Fc; no mAb 0.4
[10] = target: recombinant His-tagged full-length pneumococcal histidine triad protein D (PhtD) from strain TCH8431 (serotype 19A) (Streptococcus pneumoniae strain TCH8431 (serotype 19A)); assay: competitive BLI, His-tagged PhtD on anti-penta-HIS tips; first mAb PhtD8, then second mAb, each 100 µg/mL; white cell
[11] = target: recombinant His-tagged full-length pneumococcal histidine triad protein D (PhtD) from strain TCH8431 (serotype 19A) (Streptococcus pneumoniae strain TCH8431 (serotype 19A)); assay: competitive BLI, His-tagged PhtD on anti-penta-HIS tips; first mAb PhtD6, then second mAb, each 100 µg/mL; grey cell
[12] = target: PhtD, serotype 6D (Streptococcus pneumoniae); assay: flow cytometry on whole bacteria, serotype 6d, mAb 10 µg/ml, APC anti-human IgG Fc; no mAb 0.4
[13] = target: PhtD, serotype 12F (Streptococcus pneumoniae); assay: flow cytometry on whole bacteria, serotype 12F, mAb 10 µg/ml, APC anti-human IgG Fc; no mAb 0.3
[14] = target: PhtD, serotype 9N (Streptococcus pneumoniae); assay: flow cytometry on whole bacteria, serotype 9N, mAb 10 µg/ml, APC anti-human IgG Fc; no mAb 1.5
[15] = target: recombinant His-tagged full-length pneumococcal histidine triad protein D (PhtD) from strain TCH8431 (serotype 19A) (Streptococcus pneumoniae strain TCH8431 (serotype 19A)); assay: ELISA on coated recombinant PhtD, OD405
[16] = target: PhtD 1-343 (Streptococcus pneumoniae); assay: ELISA on coated MBP-PhtD fragment, OD405
[17] = target: PhtD 1-170 (Streptococcus pneumoniae); assay: ELISA on coated MBP-PhtD fragment, OD405
[18] = target: PhtD 168-343 (Streptococcus pneumoniae); assay: ELISA on coated MBP-PhtD fragment, OD405

Binder | % APC+ [1] [%] | % APC+ [2] [%] | % APC+ [3] [%] | EC50 [4] [µg/mL] | percent binding of the second mAb in the presence of the first mAb [5] [%] | percent binding of the second mAb in the presence of the first mAb [6] [%] | % APC+ [7] [%] | % APC+ [8] [%] | % APC+ [9] [%] | percent binding of the second mAb in the presence of the first mAb [10] [%] | percent binding of the second mAb in the presence of the first mAb [11] [%] | % APC+ [12] [%] | % APC+ [13] [%] | % APC+ [14] [%] | EC50 (read off the curve) [15] [µg/mL] | EC50 (read off the curve) [16] [µg/mL] | EC50 (read off the curve) [17] [µg/mL] | EC50 (read off the curve) [18] [µg/mL]
B1 | 7.2 | 4.2 | 3.2 | 0.045 | 9 | 81 | 16 | 19.6 | 18.3 | 77 | 47 | 2.4 | 45.8 | 28.1 | 0.1 | 0.1 | 0.1 | 0.1
B2 |  |  |  |  |  |  |  |  |  |  |  |  |  |  | 0.05 |  |  | 

— patent US20240117019A1
